What was measured:
[1] = biological target: proprietary Ral effector protein of the RalA G-LISA Activation Assay Kit; assay: ELISA-based assay; details: Absorbances normalized to a no template control (NTC); mean of one experiment performed in triplicate; parent: 1.163
[2] = biological target: proprietary Ral effector protein of the RalA G-LISA Activation Assay Kit; assay: ELISA; RalA G-LISA Activation Assay Kit (colorimetric); Ral effector protein on the Ral-BP binding plate; purified RALA incubated in the presence or absence of 15 uM GTP for 1.5 h at 25 °C, then 23.75 ng of RALA/GTP mixture applied; absorbances normalized to a no template control; one experiment in triplicate

wild-type RALA (RAS-like small GTPase), 6-His-tagged recombinant protein (from UniProt P11233) D130G
response [1]: 0.281 absorbance

wild-type RALA (RAS-like small GTPase), 6-His-tagged recombinant protein (from UniProt P11233) S157A
response [1]: 1.83 absorbance

wild-type RALA (RAS-like small GTPase), 6-His-tagged recombinant protein (from UniProt P11233) V25L
response [1]: 0.286 absorbance

wild-type RALA (RAS-like small GTPase), 6-His-tagged recombinant protein (from UniProt P11233) V25M
response [1]: 0.649 absorbance

B1: RALA G23D, 6-His-tagged recombinant protein (natural protein)
chain: MAANKPKGQNSLALHKVIMVGSDGVGKSALTLQFMYDEFVEDYEPTKADSYRKKVVLDGEEVQIDILDTAGQEDYAAIRDNYFRSGEGFLCVFSITEMESFAATADFREQILRVKEDENVPFLLVGNKSDLEDKRQVSVEEAKNRAEQWNVNYVETSAKTRANVDKVFFDLMREIRARKMEDSKEKNGKKKRKSLAKRIRERCCIL
fold change of binding against wild type [2]: 2 fold

— article PMC6291162
